Where two headings read alike, the source gives them in different places.
T1: His6-tagged 2,3-bisphosphoglycerate-independent phosphoglycerate mutase (PGAM, Slr1945) (Synechocystis sp. PCC 6803, UniProt P74507 1-532)
T1 sequence (looked up): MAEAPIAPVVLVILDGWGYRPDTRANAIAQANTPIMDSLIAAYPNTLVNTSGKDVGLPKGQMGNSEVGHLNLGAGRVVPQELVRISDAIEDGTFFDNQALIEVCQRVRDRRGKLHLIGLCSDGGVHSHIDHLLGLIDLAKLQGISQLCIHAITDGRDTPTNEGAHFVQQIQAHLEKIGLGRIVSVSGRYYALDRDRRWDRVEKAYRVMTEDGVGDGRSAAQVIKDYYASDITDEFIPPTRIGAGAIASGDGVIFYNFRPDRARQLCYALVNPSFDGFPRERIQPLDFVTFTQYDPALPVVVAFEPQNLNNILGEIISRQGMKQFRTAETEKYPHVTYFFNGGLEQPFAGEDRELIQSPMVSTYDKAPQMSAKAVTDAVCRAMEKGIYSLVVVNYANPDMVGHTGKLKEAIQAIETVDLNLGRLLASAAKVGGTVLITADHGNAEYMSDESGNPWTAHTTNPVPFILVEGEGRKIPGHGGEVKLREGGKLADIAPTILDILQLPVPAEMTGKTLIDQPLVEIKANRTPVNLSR

B1: recombinant PII, tag not stated for this experiment (natural protein, UniProt Q55247 1-112, looked up)
chain: MKKVEAIIRPFKLDEVKIALVNAGIVGMTVSEVRGFGRQKGQTERYRGSEYTVEFLQKLKIEIVVDEGQVDMVVDKLVSAARTGEIGDGKIFISPVDSVVRIRTGEKDTEAI
B2: Strep-tagged PirC (Sll0944), 112 amino acid version starting at Met 53 (natural protein, Synechocystis sp. PCC 6803, UniProt P77971 53-164, looked up)
chain: MSQILDPIPNNQPSALFCCYVNATNQIQVARITNVPNWYFERVVFPGQRLVFEAVPSAQLEIHTGMMASSIISDTIPCEQLSIDPDGLAAGGFISPEKEHESEDMTSQSLVA
B3: recombinant PirC (Sll0944), 112 amino acid version, tag not stated for this experiment (natural protein, Synechocystis sp. PCC 6803, UniProt P77971 53-164, looked up)
chain: B2 chain

Key:
[1] = molecular target: the molecule itself; test: SEC-MALS
[2] = molecular target: T2, C-terminally His8-tagged PII (UniProt Q55247 1-112); test: BLI
[3] = molecular target: T1, His6-tagged …; test: BLI
[4] = molecular target: T1, His6-tagged …; test: BLI; remark: listed apart in the source
[5] = molecular target: T2, C-terminally His8-tagged PII; test: BLI; remark: listed apart in the source
[6] = molecular target: B1; test: SEC-MALS
[7] = molecular target: T2, C-terminally His8-tagged PII; test: SPR

Row | Kd [2] [nM] | Kd [3] [nM] | Kd [4] [nM] | Kd [5] [nM] | stoichiometry N [6] | stoichiometry N [7] | Binder | stoichiometry N [1]
1 | – | – | – | – | – | – | B1 | 3
2 | 14.1 ± 0.7 | 1700 | 459 | 37.3 ± 2.5 | – | – | B2 | –
3 | – | – | – | – | 1 PirC monomer per PII trimer | ~1 PirC monomer per PII trimer | B3 | 2
